Laboratory results from paper PMC4815241 (Protein Science : A Publication of the Protein Society, 2015).
Read-outs that look alike come from different tables or passages of the source.

Key:
[1] = molecular target: human eIF4GII residues 551–745 (human) (UniProt O43432); assay: ITC; MicroCal ITC microcalorimeter; the ligand titrated into the protein in the cell (cell about 10× lower than titrant); 25°C; 20 mM Hepes/KOH pH 7.4, 150 mM KCl, 1 mM EDTA; three experiments
[2] = molecular target: eIF4GII_(551–745)/eIF4E complex (human | murine) (UniProt O43432); assay: as above
[3] = molecular target: eIF4GII_(551–745)/eIF4E complex (human | murine) (UniProt O43432); assay: SEC-MALS; Superdex 200 10/300 in assay buffer, miniDAWN light scattering instrument, 100 µg sample
[4] = molecular target: recombinant full-length murine eIF4E (murine) (UniProt P63073); assay: SEC-MALS; static light scattering after 10 min of complex formation
recombinant full-length murine eIF4E (murine), sequence (P63073 whole entry): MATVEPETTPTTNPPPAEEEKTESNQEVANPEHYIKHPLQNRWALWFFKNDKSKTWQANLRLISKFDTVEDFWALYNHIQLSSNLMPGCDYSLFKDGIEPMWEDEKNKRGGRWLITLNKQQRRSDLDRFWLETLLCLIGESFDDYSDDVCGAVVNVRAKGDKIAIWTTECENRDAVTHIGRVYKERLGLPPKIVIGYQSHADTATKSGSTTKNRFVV

[5] = molecular target: recombinant full-length murine eIF4E (murine) (UniProt P63073); assay: ITC; MicroCal ITC microcalorimeter; the ligand titrated into the protein in the cell (cell about 10× lower than titrant); 25°C; 20 mM Hepes/KOH pH 7.4, 150 mM KCl, 1 mM EDTA; three experiments
[6] = molecular target: recombinant full-length murine eIF4E (murine) (UniProt P63073); assay: as above; remark: listed apart in the source
[7] = molecular target: HRV2 2A^proC106S (human rhinovirus 2); assay: SEC-MALS; Superdex 200 10/300 in assay buffer, miniDAWN light scattering instrument, 100 µg sample
[8] = molecular target: human eIF4GII residues 551–745 (human) (UniProt O43432); assay: ITC; MicroCal ITC microcalorimeter; the ligand titrated into the protein in the cell (cell about 10× lower than titrant); 25°C; 20 mM Hepes/KOH pH 7.4, 150 mM KCl, 1 mM EDTA; three experiments; remark: listed apart in the source
[9] = molecular target: recombinant full-length murine eIF4E (murine) (UniProt P63073); assay: SEC-MALS; static light scattering on eIF4E/2A^proC106S complexes formed overnight
[10] = molecular target: T1, recombinant full-length murine eIF4E (murine, UniProt P63073 1-217); assay: SEC-MALS; Superdex 200 10/300 in assay buffer, miniDAWN light scattering instrument, 100 µg sample; conditions: both partners purified
T1 sequence (P63073 whole entry): as above

[11] = molecular target: T1, recombinant full-length murine eIF4E; assay: ITC; MicroCal ITC microcalorimeter; the ligand titrated into the protein in the cell (cell about 10× lower than titrant); 25°C; 20 mM Hepes/KOH pH 7.4, 150 mM KCl, 1 mM EDTA; three experiments; conditions: both partners purified

CVB4 2A^proC110A with a N-terminal extension of eight VP1 residues (enzyme)
Kd [1]: 19 µM
Kd [2]: 19 µM
stoichiometry N [3]: 1

HRV2 2A^pro bearing the mutations C106S and C138S (enzyme)
stoichiometry N [4]: 1

HRV2 2A^proC106S (enzyme)
Kd [1]: 75 µM
Kd [2]: 5.1 µM
Kd [5]: 12 µM
Kd [6]: 8 µM
stoichiometry N [7]: 2
Kd [8]: 86 µM
stoichiometry N [9]: 1

B1: human eIF4GII residues 551–745 (domain or fragment, UniProt O43432 551-745, looked up)
chain: GFHPERDPSDLKKVKAVEENGEEAEPVRNGAESVSEGEGIDANSGSTDSSGDGVTFPFKPESWKPTDTEGKKQYDREFLLDFQFMPACIQKPEGLPPISDVVLDKINQPKLPMRTLDPRILPRGPDFTPAFADFGRQTPGGRGVPLLNVGSRRSQPGQRREPRKIITVSVKEDVHLKKAENAWKPSQKRDSQADD
stoichiometry N [10]: 1
Kd [11]: 0.042 µM
